Laboratory results taken from US20250019439A1 (Adimab, published 2025).

Experiments:
ADI-22523 Fab = target: T1, ADI-22523 Fab; assay: BLI; tip ADI-34134 IgG, solution anti-CD3 Fab
T1 construct: anti-CD3 Fab by papain digestion of the IgG
Experimental: (§1) ForteBio affinity measurements were performed generally as previously described (Estep et al., MAbs. 2013 5(2):270-8). Briefly, ForteBio affinity measurements were performed by loading antibody IgG or Fabs on-line onto AHC sensors. Sensors were equilibrated off-line in assay buffer for 30 minutes and then monitored on-line for 60 seconds for baseline establishment. For avid binding measurement, sensors with loaded antibodies were exposed to IgG or Fab solutions for 3 minutes, afterwards they were transferred to assay buffer for 3 minutes for off-rate measurement. Kinetics data were fit using a 1:1 binding model in the data analysis software provided by ForteBio to obtain equilibrium dissociation constant (KD=koff/kₒₙ) values. In each column, tip-immobilized antibodies are listed first and solution antibodies second.
(§2) CTL-19613 is an IgG1 antibody prepared with anti-CD3 variable domains corresponding with those of clone 12C described in United States Publication Number US 2010/0183615 (e.g., see paragraphs 469-479 and FIG. 25 thereof), which also make up the CD3 binding domain of the bispecific antibody pasotuxizumab. […] In each column, tip-immobilized antibodies are listed first and solution antibodies second.

ADI-26906 Fab = target: T2, ADI-26906 Fab; assay: BLI; tip ADI-34134 IgG, solution anti-CD3 Fab
T2 construct: anti-CD3 Fab by papain digestion of the IgG
T2 sequence (VH, as listed by the source limits assumed, chain 1 of 2): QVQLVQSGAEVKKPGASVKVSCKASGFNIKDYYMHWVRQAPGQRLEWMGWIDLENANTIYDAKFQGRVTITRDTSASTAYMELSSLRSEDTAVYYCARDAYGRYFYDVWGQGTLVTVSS
T2 sequence (VL, as listed by the source limits assumed, chain 2 of 2): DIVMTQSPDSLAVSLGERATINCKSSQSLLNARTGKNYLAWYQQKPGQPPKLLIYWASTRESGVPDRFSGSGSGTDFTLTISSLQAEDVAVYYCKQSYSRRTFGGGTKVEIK
Experimental: as §1, §2

ADI-26913 Fab = target: T3, ADI-26913 Fab; assay: BLI; tip ADI-34134 IgG, solution anti-CD3 Fab
T3 construct: anti-CD3 Fab by papain digestion of the IgG
T3 sequence (VH, as listed by the source limits assumed, chain 1 of 2): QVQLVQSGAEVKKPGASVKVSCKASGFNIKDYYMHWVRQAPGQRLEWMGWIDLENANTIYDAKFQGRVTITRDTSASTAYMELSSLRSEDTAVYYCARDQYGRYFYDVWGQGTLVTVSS
Experimental: as §1, §2

ADI-26916 Fab = target: T4, ADI-26916 Fab; assay: BLI; tip ADI-34134 IgG, solution anti-CD3 Fab
T4 construct: anti-CD3 Fab by papain digestion of the IgG
T4 sequence (VH, as listed by the source, chain 1 of 2): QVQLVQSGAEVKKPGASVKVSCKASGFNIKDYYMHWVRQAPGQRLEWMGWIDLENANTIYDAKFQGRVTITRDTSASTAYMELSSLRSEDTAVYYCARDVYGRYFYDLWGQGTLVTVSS
Experimental: as §1, §2

ADI-26920 Fab = target: T5, ADI-26920 Fab; assay: BLI; tip ADI-34134 IgG, solution anti-CD3 Fab
T5 construct: anti-CD3 Fab by papain digestion of the IgG
T5 sequence (VH, as listed by the source limits assumed, chain 1 of 2): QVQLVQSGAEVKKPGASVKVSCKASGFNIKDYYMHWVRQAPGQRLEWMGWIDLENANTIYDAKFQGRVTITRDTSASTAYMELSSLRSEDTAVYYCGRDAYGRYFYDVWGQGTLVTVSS
T5 sequence (VL, as listed by the source limits assumed, chain 2 of 2): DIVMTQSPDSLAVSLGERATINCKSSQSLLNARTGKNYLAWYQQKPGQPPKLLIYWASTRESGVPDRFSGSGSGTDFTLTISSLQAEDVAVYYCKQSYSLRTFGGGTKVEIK
Experimental: as §1, §2

ADI-26921 Fab = target: T6, ADI-26921 Fab; assay: BLI; tip ADI-34134 IgG, solution anti-CD3 Fab
T6 construct: anti-CD3 Fab by papain digestion of the IgG
T6 sequence (VH, as listed by the source limits assumed, chain 1 of 2): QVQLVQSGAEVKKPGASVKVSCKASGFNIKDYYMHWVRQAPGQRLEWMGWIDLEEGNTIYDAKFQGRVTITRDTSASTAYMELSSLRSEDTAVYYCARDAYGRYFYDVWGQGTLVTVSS
Experimental: as §1, §2

ADI-26927 Fab = target: T7, ADI-26927 Fab; assay: BLI; tip ADI-34134 IgG, solution anti-CD3 Fab
T7 construct: anti-CD3 Fab by papain digestion of the IgG
T7 sequence (VH, as listed by the source limits assumed, chain 1 of 2): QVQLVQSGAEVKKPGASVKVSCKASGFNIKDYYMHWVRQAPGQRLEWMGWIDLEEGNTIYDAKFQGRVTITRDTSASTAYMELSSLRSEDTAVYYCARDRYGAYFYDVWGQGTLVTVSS
Experimental: as §1, §2

ADI-26928 Fab = target: T8, ADI-26928 Fab; assay: BLI; tip ADI-34134 IgG, solution anti-CD3 Fab
T8 construct: anti-CD3 Fab by papain digestion of the IgG
T8 sequence (VH, as listed by the source limits assumed, chain 1 of 2): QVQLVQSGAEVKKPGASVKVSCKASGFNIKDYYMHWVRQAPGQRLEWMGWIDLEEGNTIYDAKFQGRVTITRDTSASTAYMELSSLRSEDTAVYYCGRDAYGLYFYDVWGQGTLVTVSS
Experimental: as §1, §2

ADI-26941 Fab = target: T9, ADI-26941 Fab; assay: BLI; tip ADI-34134 IgG, solution anti-CD3 Fab
T9 construct: anti-CD3 Fab by papain digestion of the IgG
T9 sequence (VH, as listed by the source limits assumed, chain 1 of 2): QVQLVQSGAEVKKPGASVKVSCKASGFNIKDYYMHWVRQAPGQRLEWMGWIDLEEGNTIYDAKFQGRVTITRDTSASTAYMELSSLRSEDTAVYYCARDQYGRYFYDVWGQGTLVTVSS
T9 sequence (VL, as listed by the source limits assumed, chain 2 of 2): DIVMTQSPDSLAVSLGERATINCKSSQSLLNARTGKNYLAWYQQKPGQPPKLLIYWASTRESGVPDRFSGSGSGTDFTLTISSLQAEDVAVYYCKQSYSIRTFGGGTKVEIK
Experimental: as §1, §2

CTL-19613 Fab = target: T10, CTL-19613 Fab; assay: BLI; tip ADI-34134 IgG, solution anti-CD3 Fab
T10 construct: anti-CD3 Fab by papain digestion of the IgG1
Experimental: as §1, §2

ADI-22523 IgG = target: T11, ADI-22523 IgG; assay: BLI; tip anti-CD3 IgG, solution ADI-34134 IgG
T11 construct: anti-CD3 IgG
T11 sequence (VH, as listed by the source limits assumed, chain 1 of 2): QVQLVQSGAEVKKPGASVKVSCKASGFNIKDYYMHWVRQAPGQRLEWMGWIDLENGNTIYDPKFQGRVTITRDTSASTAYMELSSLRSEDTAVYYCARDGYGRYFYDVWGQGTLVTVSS
T11 sequence (VL, as listed by the source limits assumed, chain 2 of 2): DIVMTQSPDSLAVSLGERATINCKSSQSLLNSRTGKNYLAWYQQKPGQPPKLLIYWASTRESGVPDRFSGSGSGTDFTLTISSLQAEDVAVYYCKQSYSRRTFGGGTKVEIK
Experimental: as §1, §2

ADI-26927 IgG = target: T12, ADI-26927 IgG; assay: BLI; tip anti-CD3 IgG, solution ADI-34134 IgG
T12 construct: anti-CD3 IgG
Experimental: as §1, §2

ADI-26928 IgG = target: T13, ADI-26928 IgG; assay: BLI; tip anti-CD3 IgG, solution ADI-34134 IgG
T13 construct: anti-CD3 IgG
Experimental: as §1, §2

ADI-26941 IgG = target: T14, ADI-26941 IgG; assay: BLI; tip anti-CD3 IgG, solution ADI-34134 IgG
T14 construct: anti-CD3 IgG
Experimental: as §1, §2

ADI-26906 IgG = target: T15, ADI-26906 IgG; assay: BLI; tip anti-CD3 IgG, solution ADI-34134 IgG
T15 construct: anti-CD3 IgG
Experimental: as §1, §2

ADI-26913 IgG = target: T16, ADI-26913 IgG; assay: BLI; tip anti-CD3 IgG, solution ADI-34134 IgG
T16 construct: anti-CD3 IgG
Experimental: as §1, §2

ADI-26920 IgG = target: T17, ADI-26920 IgG; assay: BLI; tip anti-CD3 IgG, solution ADI-34134 IgG
T17 construct: anti-CD3 IgG
Experimental: as §1, §2

ADI-26921 IgG [1] = target: T18, ADI-26921 IgG; assay: BLI; tip anti-CD3 IgG, solution ADI-34134 IgG
T18 construct: anti-CD3 IgG
Experimental: as §1, §2

ADI-26916 IgG = target: T19, ADI-26916 IgG; assay: BLI; tip anti-CD3 IgG, solution ADI-34134 IgG
T19 construct: anti-CD3 IgG
Experimental: as §1, §2

ADI-67447 = target: T20, ADI-67447; assay: SPR Carterra avidity, CHO anti-ID, *koff limit
T20 construct: anti-CD3 antibody made in CHO cells, captured by anti-human Fc
T20 sequence (VH, as listed by the source limits assumed, chain 1 of 2): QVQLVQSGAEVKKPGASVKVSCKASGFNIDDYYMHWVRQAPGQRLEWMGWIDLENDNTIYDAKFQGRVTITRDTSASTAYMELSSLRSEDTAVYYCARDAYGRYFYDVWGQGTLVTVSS
Experimental: (§3) Kinetic analysis was conducted at 25° C. in an HBSTE running buffer system (Carterra Cat #3630) using a Carterra LSA (Carterra USA, Salt Lake City, UT). The sample compartment was maintained at 20° C. for the duration of each experiment.
(§4) For antibody capture experiments, a goat anti-human Fc antibody (Jackson ImmunoResearch) was covalently coupled to an HC30M sensor chip surface via standard amine coupling (1:1 EDC:NHS) and then blocked with ethanolamine (1.0 M, pH 8.5). Covalent coupling steps were performed in 25 mM MES buffer (Carterra, Cat #3625) plus 0.05% Tween20. The anti-CD3 antibodies (100 nM in running buffer) were flowed over discrete regions of interest on the chip surface for 5 minutes. […] Dissociation of the anti-idiotype antibodies was monitored for 300s. Several blank buffer samples were injected over the entire chip surface at the start of each non-regenerative kinetic cycle. The preceding blank buffer injection was used for blank surface subtraction. At the end of each non-regenerative kinetic cycle, all surfaces were regenerated via two 30s injections of 10 mM glycine, pH 1.7.
(§5) For data processing and fitting, sensorgrams were double reference subtracted with a baseline drift correction of 4 RU. Sensorgrams were y-aligned and baseline corrected, filtered and cropped to include only the association and dissociation steps. Data was fitted to a 1:1 binding model using Carterra Kinetics Data Analysis software version 1.7.1.3055.

ADI-26909 = target: T21, ADI-26909; assay: SPR Carterra avidity, CHO anti-ID, *koff limit
T21 construct: anti-CD3 antibody made in CHO cells, captured by anti-human Fc
T21 sequence (VH, as listed by the source limits assumed, chain 1 of 2): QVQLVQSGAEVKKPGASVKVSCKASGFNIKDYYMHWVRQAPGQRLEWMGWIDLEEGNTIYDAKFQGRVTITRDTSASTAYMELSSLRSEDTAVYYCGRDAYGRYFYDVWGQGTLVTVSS
Experimental: as §3, §4, §5

ADI-26921 IgG [2] = target: T18, ADI-26921 IgG; assay: SPR Carterra avidity, CHO anti-ID, *koff limit
Experimental: as §3, §4, §5

ADI-76357 = target: T22, ADI-76357; assay: SPR Carterra avidity, CHO anti-ID, *koff limit
T22 construct: anti-CD3 antibody made in CHO cells, captured by anti-human Fc
T22 sequence (VH, as listed by the source, chain 1 of 2): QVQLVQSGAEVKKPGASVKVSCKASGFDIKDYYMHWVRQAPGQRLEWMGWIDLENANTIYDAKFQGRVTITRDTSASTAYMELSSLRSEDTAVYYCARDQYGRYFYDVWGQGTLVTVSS
Experimental: as §3, §4, §5

ADI-76361 = target: T23, ADI-76361; assay: SPR Carterra avidity, CHO anti-ID, *koff limit
T23 construct: anti-CD3 antibody made in CHO cells, captured by anti-human Fc
T23 sequence (VH, as listed by the source, chain 1 of 2): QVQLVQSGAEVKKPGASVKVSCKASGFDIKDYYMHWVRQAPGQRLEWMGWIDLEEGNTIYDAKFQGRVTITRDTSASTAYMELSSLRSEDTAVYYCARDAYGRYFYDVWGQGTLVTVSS
Experimental: as §3, §4, §5

ADI-48650 = target: T24, ADI-48650; assay: SPR Carterra avidity, CHO anti-ID; CHO-produced ADI-34134 (Table 10C)
T24 construct: pH-dependent anti-CD3 antibody made in CHO cells
T24 sequence (VH, as listed by the source, chain 1 of 2): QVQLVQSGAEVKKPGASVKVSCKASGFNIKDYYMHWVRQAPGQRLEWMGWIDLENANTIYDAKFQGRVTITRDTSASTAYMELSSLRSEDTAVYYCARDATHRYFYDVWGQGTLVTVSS
T24 sequence (VL, as listed by the source, chain 2 of 2): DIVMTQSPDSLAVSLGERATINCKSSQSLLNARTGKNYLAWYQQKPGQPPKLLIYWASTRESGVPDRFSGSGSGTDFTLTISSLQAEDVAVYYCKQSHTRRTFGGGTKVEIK
Experimental: as §3, §4
(§6) For data processing and fitting, sensorgrams were double reference subtracted with a baseline drift correction of 4 RU. Sensorgrams were y-aligned and baseline corrected, filtered and cropped to include only the association and dissociation steps. […]

ADI-74965 = target: T25, ADI-74965; assay: as above
T25 construct: pH-dependent anti-CD3 antibody made in CHO cells
T25 sequence (VH, as listed by the source, chain 1 of 2): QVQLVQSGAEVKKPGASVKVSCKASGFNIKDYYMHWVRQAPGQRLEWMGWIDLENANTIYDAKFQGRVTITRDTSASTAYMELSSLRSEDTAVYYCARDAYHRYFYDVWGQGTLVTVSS
T25 sequence (VL, as listed by the source, chain 2 of 2): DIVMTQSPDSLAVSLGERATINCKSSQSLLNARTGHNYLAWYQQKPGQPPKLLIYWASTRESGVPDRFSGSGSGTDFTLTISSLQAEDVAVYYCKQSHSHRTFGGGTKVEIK
Experimental: as §3, §4, §6

B1: ADI-34134 IgG (antibody, V domains shown)
VH: QVQLVQSGAEVKKPGSSVKVSCKASGGTFSSYAISWVRQAPGQGLEWMGGIIPIFGTANYAQKFQGRVTITADESTSTAYMELSSLRSEDTAVYYCARGAPNYYGSGGYDDGWFDPWGQGTLVTVSS
VL: EIVLTQSPGTLSLSPGERATLSCRASQSVSSDYLAWYQQKPGQAPRLLIYGASSRATGIPDRFSGSGSGTDFTLTISRLEPEDFAVYYCQQFGRVPTFGGGTKVEIK
Kd (ADI-22523 Fab): 4.46 nM | Kd (ADI-26906 Fab): 36 nM | Kd (ADI-26913 Fab): 86.5 nM | Kd (ADI-26916 Fab): 110 nM | Kd (ADI-26920 Fab): 29.8 nM | Kd (ADI-26921 Fab): 92.7 nM | Kd (ADI-26927 Fab): 25.6 nM | Kd (ADI-26928 Fab): 182 nM | Kd (ADI-26941 Fab): 112 nM | binding result (CTL-19613 Fab): no binding | Kd (ADI-22523 IgG): 0.37 nM | Kd (ADI-26927 IgG): 0.45 nM | Kd (ADI-26928 IgG): 0.85 nM | Kd (ADI-26941 IgG): 1.13 nM | Kd (ADI-26906 IgG): 0.43 nM | Kd (ADI-26913 IgG): 0.77 nM | Kd (ADI-26920 IgG): 0.46 nM | Kd (ADI-26921 IgG [1]): 0.57 nM | Kd (ADI-26916 IgG): 1.04 nM | Kd (ADI-67447): 0.12 nM | Kd (ADI-26909): 0.11 nM | Kd (ADI-26921 IgG [2]): 0.11 nM | Kd (ADI-76357): 0.088 nM | Kd (ADI-76361): 0.094 nM | binding result (ADI-48650): binds | binding result (ADI-74965): binds
